# Numbering of substitutions follows the chain as printed. Names may count otherwise. “Also recorded” adds a separate entry of the source.
# T1: full-length TOST-1 (TOST-1^FL) (C. elegans, UniProt Q18490 1-142)
# T1 sequence (looked up): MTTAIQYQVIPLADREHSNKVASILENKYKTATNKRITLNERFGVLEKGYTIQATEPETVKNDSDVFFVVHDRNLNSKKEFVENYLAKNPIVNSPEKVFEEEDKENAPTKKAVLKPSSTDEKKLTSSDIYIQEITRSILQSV
# T2: PID-1-mVenus-Strep (C. elegans, UniProt Q19541 1-169)
# T2 sequence (looked up): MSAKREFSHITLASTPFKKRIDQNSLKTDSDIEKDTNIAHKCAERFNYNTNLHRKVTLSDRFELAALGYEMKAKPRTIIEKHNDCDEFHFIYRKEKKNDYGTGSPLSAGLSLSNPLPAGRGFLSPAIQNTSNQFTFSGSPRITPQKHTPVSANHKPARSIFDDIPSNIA
# T3: ERH-2 W87A (C. elegans, UniProt Q20057 1-113, W87A)
# T3 sequence (looked up): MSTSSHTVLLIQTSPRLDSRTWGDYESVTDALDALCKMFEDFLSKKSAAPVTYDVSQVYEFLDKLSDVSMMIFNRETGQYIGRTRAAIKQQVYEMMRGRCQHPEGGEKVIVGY
# T4: ERH-2 I81A/R83A (C. elegans, UniProt Q20057 1-113, I81A | R83A)
# T4 sequence (looked up): T3 sequence (looked up) with I81A, R83A, A87W
# T5: TOFU-6^RRM (C. elegans, UniProt Q09293 1-99)
# T5 sequence (looked up): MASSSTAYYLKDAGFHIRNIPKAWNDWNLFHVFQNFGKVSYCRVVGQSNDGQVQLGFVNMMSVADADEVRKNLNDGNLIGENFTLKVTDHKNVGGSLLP
# T6: TOFU-6 RRM (Caenorhabditis elegans, UniProt Q09293 1-99)
# T6 sequence: T5 sequence (looked up)
# T7: PID-3/ERH-2 subcomplex (C. elegans, UniProt O76616 1-307; Q20057 1-113)
# T7 sequence (looked up) 1: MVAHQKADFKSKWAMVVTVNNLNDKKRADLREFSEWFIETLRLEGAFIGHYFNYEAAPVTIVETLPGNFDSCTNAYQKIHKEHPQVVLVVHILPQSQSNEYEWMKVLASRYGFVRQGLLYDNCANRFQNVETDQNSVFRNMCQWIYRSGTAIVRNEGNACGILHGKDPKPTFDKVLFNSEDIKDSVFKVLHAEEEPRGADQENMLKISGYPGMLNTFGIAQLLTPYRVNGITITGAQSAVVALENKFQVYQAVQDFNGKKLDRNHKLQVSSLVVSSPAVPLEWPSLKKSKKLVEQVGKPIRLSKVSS
# T7 sequence (looked up) 2: T3 sequence (looked up) with A87W
# T8: TOFU-6 (C. elegans, UniProt Q09293 1-367)
# T8 sequence (looked up): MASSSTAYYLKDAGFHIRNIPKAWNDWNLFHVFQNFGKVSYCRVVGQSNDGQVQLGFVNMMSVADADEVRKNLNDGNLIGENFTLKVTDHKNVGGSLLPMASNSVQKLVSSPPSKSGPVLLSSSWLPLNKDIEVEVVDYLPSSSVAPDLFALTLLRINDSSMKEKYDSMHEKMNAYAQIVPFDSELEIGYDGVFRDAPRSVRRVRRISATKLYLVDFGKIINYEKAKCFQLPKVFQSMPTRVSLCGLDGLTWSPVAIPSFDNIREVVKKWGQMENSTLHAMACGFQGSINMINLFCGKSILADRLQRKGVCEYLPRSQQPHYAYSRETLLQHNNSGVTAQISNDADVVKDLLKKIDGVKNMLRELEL
# B1: full-length ERH-2^FL (natural protein, C. elegans, UniProt Q20057 1-113, looked up)
# chain: T3 sequence (looked up) with A87W
# B2: PID-3^RRM (domain or fragment, C. elegans, UniProt O76616 196-274, looked up)
# chain: PRGADQENMLKISGYPGMLNTFGIAQLLTPYRVNGITITGAQSAVVALENKFQVYQAVQDFNGKKLDRNHKLQVSSLVV
# B3: TOST-1-mVenus-Strep (natural protein, C. elegans, UniProt Q18490 1-142, looked up)
# chain: T1 sequence (looked up)
# B4: PID-3 full-length (natural protein, C. elegans, UniProt O76616 1-307, looked up)
# chain: T7 sequence (looked up) 1
# B5: PID-3 (I182A and V186A) (protein, UniProt O76616 1-307, looked up, variant I182A V186A)
# Protein pid-3: T7 sequence (looked up) 1 with I182A, V186A
# B6: PID-3(A220E) (protein, UniProt O76616 1-307, looked up, variant A220E)
# Protein pid-3: T7 sequence (looked up) 1 with A220E
# B7: ^15N-labeled full-length ERH-2 (natural protein, C. elegans)
# chain: GHMASMSTSSHTVLLIQTSPRLDSRTWGDYESVTDALDALCKMFEDFLSKKSAAPVTYDVSQVYEFLDKLSDVSMMIFNRETGQYIGRTRAWIKQQVYEMMRGRCQHPEGGEKVIVGY
# B8: ERH-2^ΔC (domain or fragment, C. elegans, UniProt Q20057 1-99, looked up)
# chain: MSTSSHTVLLIQTSPRLDSRTWGDYESVTDALDALCKMFEDFLSKKSAAPVTYDVSQVYEFLDKLSDVSMMIFNRETGQYIGRTRAWIKQQVYEMMRGR
# How the values were obtained:
# [1] = target: B4; assay: SEC
# [2] = target: T1, full-length TOST-1 (TOST-1^FL); assay: ITC
# [3] = target: T2, PID-1-mVenus-Strep; assay: pull-down
# [4] = target: T3, ERH-2 W87A; assay: pull-down
# [5] = target: T4, ERH-2 I81A/R83A; assay: pull-down
# [6] = target: T5, TOFU-6^RRM; assay: SEC
# [7] = target: T6, TOFU-6 RRM; assay: fluorescence anisotropy
# [8] = target: T7, PID-3/ERH-2 subcomplex; assay: pull-down
# [9] = target: the molecule itself; assay: SEC-MALS
# [10] = target: T8, TOFU-6; assay: SEC-MALS
# [11] = tested on: 21U RNA; assay: 21U RNA sequencing; format: in vivo, C. elegans; conditions: small RNA-seq, 20°C and 25°C, n = 3, versus wild type
# [12] = tested on: P granules (perinuclear foci); assay: Subcellular localization by confocal microscopy; format: in vivo, C. elegans; conditions: GFP-tagged PID-3, 25°C
# [13] = target: T1, full-length TOST-1 (TOST-1^FL); assay: NMR titration
# [14] = target: the molecule itself; assay: crystal structure
molecule,measurement,setting,value
B1,binding result,[1],binds
same,Kd,[2],13 µM
same,binding result,[3],binds
"TFDKVLFNSEDIKDSVFKVLHAEEEPRGADQEN (peptide, UniProt O76616 171-203, looked up) [GST-PID-3^pep]",binding result,[4],binds
same,binding result,[5],binds
B2,binding result,[6],binds
UUUUUUUUUUUUUUUU (ssRNA) [Cy5-U16],Kd,[7],~60 µM
B3,binding result,[8],binds
B4,binding result,[9],binds
same,binding result,[10],binds
B5,21U RNA levels,[11],temperature-sensitive effect on overall 21U RNA levels; also recorded: affect all 21U RNA species
B6,subcellular localization,[12],did not form perinuclear foci
B7,binding result,[13],binds
B8,binding result,[14],binds
